US20110243929A1

Legend:
[1] = molecular target: cynomolgus ICOS (cynomolgus); assay: flow cytometry, cynomolgus splenic memory T cells (CD4+ CD45RA-)
[2] = molecular target: cynomolgus ICOS (cynomolgus); assay: flow cytometry, cynomolgus splenic naive T cells (CD4+ CD45RA+)
[3] = molecular target: cynomolgus ICOS (cynomolgus); assay: flow cytometry, cynomolgus mesenteric lymph node activated T cells (CD4+ CD45RA-)
[4] = molecular target: cynomolgus ICOS (cynomolgus); assay: flow cytometry, cynomolgus mesenteric lymph node naive T cells (CD4+ CD45RA+)

Sequence of cynomolgus ICOS (cynomolgus) (A0A2K5 entry or part of it limits assumed): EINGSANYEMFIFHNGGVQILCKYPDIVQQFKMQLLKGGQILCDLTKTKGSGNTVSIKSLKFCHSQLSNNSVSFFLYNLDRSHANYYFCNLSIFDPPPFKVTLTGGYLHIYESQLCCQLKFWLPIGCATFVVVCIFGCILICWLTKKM

## Isotype Control (antibody)
[1]
  % of gated cells in the positive quadrant: 2.4%
[2]
  % of gated cells in the positive quadrant: 1.7%
[3]
  % of gated cells in the positive quadrant: 1.64%
[4]
  % of gated cells in the positive quadrant: 2.8%
